Results: patent US20150018530A1

Columns and labels:
[1] = molecular target: EGF receptor on A431 cells (UniProt P00533); test: competition flow cytometry on A431 cells; scFv pre-bound, mAb108 at 7.5 nM as competitor, APC anti-mouse detection
[2] = molecular target: EGF receptor on A431 cells (UniProt P00533); test: Competition flow cytometry on A431 cells: cells incubated with the scFv at varied concentration and washed, then mAb108 at 7.5 nM, detected with APC-labelled anti-mouse antibody; y axis Median
[3] = molecular target: EGF receptor on A431 cells (UniProt P00533); test: flow cytometry on A431 cells; binding conditions 'as described previously' (competition with mAb108)
[4] = molecular target: EGF receptor on A431 cells (UniProt P00533); test: flow cytometry on A431 cells; concentration of mAb108 used in the competition assay
[5] = molecular target: EGF receptor on A431 cells (UniProt P00533); test: Flow cytometry binding curve of the Fab on A431 cells (binding conditions 'as described previously'); y axis Median rises from about 20 to about 790

wild type scFv-108 (periplasmic), sequence (scFv): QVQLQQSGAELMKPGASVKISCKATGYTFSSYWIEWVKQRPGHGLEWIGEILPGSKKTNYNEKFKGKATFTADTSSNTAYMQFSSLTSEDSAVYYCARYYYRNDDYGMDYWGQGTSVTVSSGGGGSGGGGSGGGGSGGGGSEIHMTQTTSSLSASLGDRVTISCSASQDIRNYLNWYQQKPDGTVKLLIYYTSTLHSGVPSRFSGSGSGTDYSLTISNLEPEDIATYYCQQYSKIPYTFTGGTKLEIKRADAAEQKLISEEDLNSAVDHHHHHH

Row | Substance | IC50 relative to the wild type scFv [1] | further results
1 | wild type scFv-108 (periplasmic) |  | IC50 [1]: 8.1 nM
2 | scFv-108 Ser136pAF-5K PEG | 6.3 x | IC50 [2]: 51 nM
3 | wild type Fab-108 (from UniProt P01834 1-107) |  | EC50 [3]: 3 nM
4 | scFv-108 His144pAF | 2.6 x | 
5 | scFv-108 Ser136pAF | 1.6 x | IC50 [2]: 13.1 nM
6 | EGFR-specific monoclonal antibody mAb108 (ATCC #HB 9764) |  | EC80 [4]: 7.5 nM
7 | Fab-108 Thr204 pAF (from UniProt P01834 1-107) |  | EC50 [5]: 6.2 nM

More lines, main results first:

Row | IC50 relative to the wild type scFv [1] | Substance | further results
8 | 1.3 x | scFv-108 Ser131pAF | 
9 | 1.8 x | scFv-108 Leu156pAF | 
10 | 1.8 x | scFv-108 Ser193pAF | 
